Data on 5 molecules can be found in paper PMC11006873, “Fuzzy recognition by the prokaryotic transcription factor HigA2 from Vibrio cholerae” (Nature Communications, 2024).

Data set [1] has as its target HigA2Phd (Vibrio cholerae (globular domain); Phd IDR organism not stated) (UniProt Q9KMA5). Description: ITC. Particulars: ITC: 20 mM sodium phosphate pH 7.0, 150 mM NaCl, 1 mM EDTA, 25 or 5 C; EMSA/footprint: 20 mM Tris pH 8, 200 mM NaCl; NMR: 20 mM sodium phosphate pH 6.8, 130 mM ….
Data set [2] has as its target T1, HigA2 (Vibrio cholerae, UniProt Q9KMA5). Description: ITC; 25 C; ITC: 20 mM sodium phosphate pH 7.0, 150 mM NaCl, 1 mM EDTA, 25 or 5 C; EMSA/footprint: 20 mM Tris pH 8, 200 mM NaCl; NMR: 20 mM sodium phosphate pH 6.8, 130 mM. The following applies: protein: recombinant; tags: C-terminal His6, uncleavable; chain copies: 2. In general terms: ITC needs no label: the signal is the heat of the interaction.

For another data set, the target named is HigA2Mut(14-25) (Vibrio cholerae, UniProt Q9KMA5, L14S;V15S;E16A;A17T;K18A;Q19S;H20G;S21A;E22T;G23A;K24S;L25S). The data set is described as follows: ITC; 5 C; ITC: 20 mM sodium phosphate pH 7.0, 150 mM NaCl, 1 mM EDTA, 25 or 5 C; EMSA/footprint: 20 mM Tris pH 8, 200 mM NaCl; NMR: 20 mM sodium phosphate pH 6.8, 130 mM. Particulars: protein: recombinant; tags: C-terminal His6, uncleavable; chain copies: 2.

For the next data set, the target named is HigA2Shuff (Vibrio cholerae, UniProt Q9KMA5, IDR sequence shuffled). The description is as above. The following applies: protein: recombinant; tags: C-terminal His6, uncleavable; chain copies: 2.
The target in a further data set is HigA2Mut(26-37) (Vibrio cholerae, UniProt Q9KMA5, T26S;L27S;K28A;H30A;H31S;V32G;N33A;D34T;V35A;G36S;E37S). Described as above. Particulars: protein: recombinant; tags: C-terminal His6, uncleavable; chain copies: 2.
In data set [3] the target is T2, HigA2ΔIDR (Vibrio cholerae, UniProt Q9KMA5, del1-36). The data set is described as above. Particulars: protein: recombinant; tags: C-terminal His6, uncleavable; chain copies: 2.
Data set [4] has as its target T1, HigA2. Described as above. Particulars: protein: recombinant; tags: C-terminal His6, uncleavable; chain copies: 2.
The next data set has as its target HigA2Mut(2-13) (Vibrio cholerae, UniProt Q9KMA5, N3S;R4A;D5T;L6A;F7S;A8G;E9A;L10T;S11A;A13S). The description is as above. Particulars: protein: recombinant; tags: C-terminal His6, uncleavable; chain copies: 2.
Data set [5] deals with T2, HigA2ΔIDR. The data set is described as follows: ITC; 25 C; ITC: 20 mM sodium phosphate pH 7.0, 150 mM NaCl, 1 mM EDTA, 25 or 5 C; EMSA/footprint: 20 mM Tris pH 8, 200 mM NaCl; NMR: 20 mM sodium phosphate pH 6.8, 130 mM. Particulars: protein: recombinant; tags: C-terminal His6, uncleavable; chain copies: 2.
The target in another data set is T3, HigA2IDR (Vibrio cholerae, UniProt Q9KMA5).
T3 chain: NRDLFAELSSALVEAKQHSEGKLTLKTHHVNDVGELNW
The data set is described as above. Particulars: tags: C-terminal extra W; chain copies: 2.

Data set [6] deals with the molecule itself. The data set is described as follows: crystal structure; HigA2 and the 17 bp operator fragment Opr17 mixed 1:1.2, 250 uM complex; sitting drop vapor diffusion; 0.2 M sodium chloride, 0.1 M Na HEPES pH 7.5, 12% (w/v) PEG 8000.
In data set [7] the target is T1, HigA2. The data set is described as follows: X-ray crystallography; HigA2 dimer; residues 37-104 visible; ITC: 20 mM sodium phosphate pH 7.0, 150 mM NaCl, 1 mM EDTA, 25 or 5 C; EMSA/footprint: 20 mM Tris pH 8, 200 mM NaCl; NMR: 20 mM sodium phosphate pH 6.8, 130 mM. Particulars: protein: recombinant; tags: C-terminal His6, uncleavable; chain copies: 2; blunt. A general note: A gel shift assay detects complexes by their altered migration in electrophoresis.

As for “ATCTGTACGCTTGGTGCGTACACTT (double strand) [Opr25]”, the Kd in data set [1] stood at 10000 nM.

B1: Opr25 (dsDNA)
DNA 1: ATCTGTACGCTTGGTGCGTACACTT
DNA 2: AAGTGTACGCACCAAGCGTACAGAT
For the molecule B1, the Kd is 13.8 ± 5.8 nM in the data set with HigA2 [2]; 5100 ± 2400 nM in the data set with HigA2Mut(14-25); 37000 ± 20000 nM with HigA2Shuff; 480 ± 160 nM in the data set with HigA2ΔIDR [3]; 15 ± 3 nM with HigA2 [4]; 390 ± 130 nM with HigA2Mut(2-13). The binding result with HigA2Mut(26-37) is “no binding”.

B2: Opr45 (dsDNA)
DNA 1: AATTCTTGCCATCTGTACGCTTGGTGCGTACACTTCCTATATGAA
DNA 2: TTCATATAGGAAGTGTACGCACCAAGCGTACAGATGGCAAGAATT
As to B2, the Kd with HigA2ΔIDR [5] was 400 ± 50 nM; with HigA2 [2] it was 25.1 ± 5.2 nM. In addition, the binding result with HigA2IDR is on record as “no binding”.

B3: HigA2 antitoxin from Vibrio cholerae (full-length, C-terminal histidine tag) (natural protein)
chain: MSNRDLFAELSSALVEAKQHSEGKLTLKTHHVNDVGELNISPDEIVSIREQFNMSRGVFARLLHTSSRTLENWEQGRSVPNGQAVTLLKLVQRHPETLSHIAEL
notes: Antitoxin HigA2 of the higBA2 toxin-antitoxin module, Vibrio cholerae; N-terminal disordered region (residues 2-36) and globular C-terminal HTH domain (residues 37-104); only residues 37-104 are seen in the crystal; The histidine tag is un-cleavable (pET21b, NdeI/XhoI); also called wild-type HigA2; full-length HigA2; not shown: histidine tag, C-terminal, kept
Turning to B3, the “stoichiometry N” value in data set [6] amounted to 2.

B4: Opr17 (dsDNA)
DNA 1: GTACGCTTGGTGCGTAC
DNA 2: GTACGCACCAAGCGTAC
With B4, the binding result with HigA2 [7] was “binds”.

What is called Kd is the concentration at which binding is half-saturated. In general, stoichiometry N refers to a count of units in the complex or per binding partner.
